Measurements: publication PMC9293779, “Elucidation of binding preferences of YEATS domains to site-specific acetylated nucleosome core particles” (The Journal of Biological Chemistry, 2022)

Experiments:
AF9-YEATS (human) = assay: MST; conditions: NCP plate assay: 10 mM Tris-HCl pH 7.5, 150 mM NaCl, 25 C, 1 h, 5 pmol NCP, 25 pmol protein, MST buffer not in material
AF9-YEATS E57A (human) = assay: MST; conditions: NCP plate assay: 10 mM Tris-HCl pH 7.5, 150 mM NaCl, 25 C, 1 h, 5 pmol NCP, 25 pmol protein, MST buffer not in material
YEATS2-YEATS (human) = assay: MST; conditions: NCP plate assay: 10 mM Tris-HCl pH 7.5, 150 mM NaCl, 25 C, 1 h, 5 pmol NCP, 25 pmol protein; MST buffer not in material
GAS41-YEATS (human) = assay: MST; conditions: NCP plate assay: 10 mM Tris-HCl pH 7.5, 150 mM NaCl, 25 C, 1 h, 5 pmol NCP, 25 pmol protein; MST buffer not in material
[1] = biological target: unmodified nucleosome core particle (NCP) (human) (UniProt P04908); assay: MST; YEATS domain labelled with a His-tag labeling kit; 10 mM Hepes-NaOH pH 7.4, 150 mM NaCl; room temperature; Monolith NT.115; fitted to the Hill equation, K1/2 = half-saturation concentration; biological triplicate
[2] = biological target: H4K8/K12-diacetylated NCP (human) (UniProt P04908); assay: as above
[3] = biological target: H4K5-acetylated NCP (human) (UniProt P04908); assay: as above
[4] = biological target: H4K8-acetylated NCP (human) (UniProt P04908); assay: as above
[5] = biological target: H3K9-acetylated NCP (human) (UniProt P04908); assay: as above
[6] = biological target: H4K5/K8/K12/K16-tetra-acetylated NCP (human) (UniProt P04908); assay: as above
[7] = biological target: H4K12-acetylated NCP (human) (UniProt P04908); assay: as above
[8] = biological target: H4K5/K8-diacetylated NCP (human) (UniProt P04908); assay: as above
[9] = histone H4K5ac/K8ac/K12ac/K16ac

Chain of AF9-YEATS domain, polyhistidine-tagged (microscale thermophoresis) (P42568 1-138): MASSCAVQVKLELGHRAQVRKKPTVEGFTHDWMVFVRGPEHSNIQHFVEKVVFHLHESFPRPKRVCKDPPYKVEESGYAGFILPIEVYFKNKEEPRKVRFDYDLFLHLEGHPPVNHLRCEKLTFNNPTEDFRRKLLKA

Substance: H4K5ac/K8ac/K12ac/K16ac NCP
- K half (AF9-YEATS (human); [9]): 25 nM
- binding signal (fold K1/2 increase vs WT) (AF9-YEATS E57A (human); [9]): 1.5

Substance: nucleosome-free 147-bp dsDNA
- K half (YEATS2-YEATS (human)): 8.2 µM
- K half (AF9-YEATS (human)): 12000 nM
- K half (GAS41-YEATS (human)): > 50000 nM

Substance: H4K8ac NCP
- K half (AF9-YEATS (human); histone H4K8ac): 75 nM

Substance: H4K8ac/K12ac NCP
- K half (AF9-YEATS (human); histone H4K8ac/K12ac): 41 nM
- binding signal (fold K1/2 increase vs WT) (AF9-YEATS E57A (human); histone H4K8ac/K12ac): 1.3

Substance: AF9-YEATS domain, polyhistidine-tagged (microscale thermophoresis) (from UniProt P42568 1-138) (domain or fragment)
- K1/2 (half-saturation concentration) [1]: 0.14 µM
- K1/2 (half-saturation concentration) [2]: 41 nM
- K1/2 (half-saturation concentration) [3]: 120 nM
- K1/2 (half-saturation concentration) [4]: 75 nM
- K1/2 (half-saturation concentration) [5]: 16 nM
- K1/2 (half-saturation concentration) [6]: 25 nM
- K1/2 (half-saturation concentration) [7]: 140 nM
- K1/2 (half-saturation concentration) [8]: 30 nM

Substance: unmodified NCP
- K half (YEATS2-YEATS (human)): 2.6 µM
- K half (AF9-YEATS (human)): 140 nM
- K half (GAS41-YEATS (human)): 1400 nM

Substance: AF9-YEATS E57A mutant (from UniProt P42568 1-138) (domain or fragment)
- fold increase in K1/2 against the WT [2]: 1.3 fold
- fold increase in K1/2 against the WT [6]: 1.5 fold
- fold increase in K1/2 against the WT [8]: 1.8 fold

Substance: GAS41-YEATS domain, polyhistidine-tagged (microscale thermophoresis) (from UniProt O95619 15-159) (domain or fragment)
- K1/2 (half-saturation concentration) [1]: 1.4 µM

Substance: H3K9ac NCP
- K half (AF9-YEATS (human); histone H3K9ac): 16 nM

Substance: YEATS2-YEATS domain, polyhistidine-tagged (microscale thermophoresis) (from UniProt Q9ULM3 200-349) (domain or fragment)
- K1/2 (half-saturation concentration) [1]: 2.6 µM

Substance: H4K5ac/K8ac NCP
- K half (AF9-YEATS (human); histone H4K5ac/K8ac): 30 nM
- binding signal (fold K1/2 increase vs WT) (AF9-YEATS E57A (human); histone H4K5ac/K8ac): 1.8

Substance: H4K5ac NCP
- K half (AF9-YEATS (human); histone H4K5ac): 120 nM

Substance: H4K12ac NCP
- K half (AF9-YEATS (human); histone H4K12ac): 140 nM
